The values below come from US20150335719A1, “Intravitreal Injection of a Chimeric Phage Endolysin Ply187; Protection from Staphylococcus aureus Endophthalmitis” (priority 2014, published 2015).

Values joined by “and” are separate entries in the source; they are usually repeats but may differ in a detail not shown here. Equal entries are not always repeated.

One experiment concerns S. aureus. Description: Antimicrobial activity in the presence of calf vitreous humor in vitro. It is filed as cell-based, Staphylococcus aureus. Conditions: calf VH, 10^5 CFU, 2, 4 and 6 h. The source says: FIGS. 4 A, B and C depict the effect of chimeric Ply187AN-KSH3b on bacterial growth in vivo and in the vitreous humor (VH) in vitro and with increasing inoculums in vitro respectively. […] Twenty-four hours after the treatment, the eyes were enucleated, homogenized and the bacterial burden was estimated via serial dilution plating. FIG. 4B depicts a test showing the effect of the vitreous humor on Ply187AN-KSH3b antimicrobial activity where Ply187AN-KSH3b was mixed with calf vitreous humor and inoculated with 10^5 CFU of S. aureus. The survival of the bacteria was enumerated by CFU count at 2, 4 and 6 h of incubation. Statistical analysis was performed using unpaired student's t test (*, p<0.05; **, p<0.005; ***, p<0.0005). […] An increasing number of dilutions (1:10,000 to 1:10) of logarithmic phase of S. aureus (RN6390 strain) were treated with Ply187AN-KSH3b for 1 h followed by CFU enumeration on TSA plates. Statistical analysis was performed using unpaired student's t test (*, p<0.05; **, p<0.005; ***, p<0.0005).
To determine the effect of Vitreous Humor (VH) on antimicrobial activity of chimeric Ply187AN-KSH3b in vitro, bacteria (10^5 CFU) were incubated with chimeric Ply187AN-KSH3b in the presence of calf VH. Following incubation at 37° C. for the desired time, bacterial growth in VH was enumerated by serial dilution plating. […]

Experiment [1] has as its system S. aureus RN6390 endophthalmitis. Description: Mouse S. aureus endophthalmitis: histology (H&E) and TUNEL staining of retina. It is filed as in vivo, C57BL/6 mice. Here is the method:
FIGS. 3A-3E show the effects of intravitreal injection of chimeric Ply187AN-KSH3b on the severity of S. aureus endophthalmitis. The eyes (n=10) of C57BL/6 mice were infected with S. aureus strain RN6390 and following either 6 h or 12 h post-infection, Ply187AN-KSH3b or EB (EB C) was administered by intravitreal injection. FIG. 3A depicts individual eyes assigned clinical scores (range 0 to 4; black dots represent an eye) and presented as mean clinical scores (bar with SEM). […] FIG. 3E depicts the total number of dead cells in the retinal sections that were counted and are presented as mean±SD of the TUNEL positive cells. A student's t test (**, p<0.005) was used for the statistical analysis and comparisons were made between the S. aureus (SA) control, SA+EBC, and SA+Ply187AN-KSH3b-treated group.
The embedding, sectioning, and Hematoxylin and Eosin (H & E) staining was performed by Excalibur Pathology Inc. (Oklahoma City, Okla.). For immunostaining, the eyes were fixed in Tissue-Tek® O.C.T. (Sakura, Torrance, Calif.) and five-micrometer-thick sagittal sections were collected from each eye and mounted onto microscope slides. TUNEL staining was performed on retinal cryo-sections using ApopTag® Fluorescein In situ Apoptosis Detection Kit as per manufacturer's instruction (Millipore, Billerica, Mass.).

Experiment [2] deals with neutrophil (PMN) infiltration in retina/vitreous. Briefly: Mouse S. aureus endophthalmitis: PMN infiltration by flow cytometry (CD45/Ly6G). The experiment is classed as in vivo, C57BL/6 mice. Conditions: vs vehicle-treated/control eyes, 24 h post treatment. The method, then:
FIG. 6 depicts infiltration of polymorphonuclear cells (PMNs) in the Ply187AN-KSH3b-treated mouse retina/vitreous cavity. Infected eyes were given intravitreal injections of either EB or chimeric Ply187AN-KSH3b for either 6 or 12 h post infection. Twenty four hour post Ply187AN-KSH3b treatment, the eyes (n=6) were enucleated and the retina/vitreous humor from two eyes were pooled to make single-cell suspensions. The cells were stained with anti-CD45 and anti-Ly6G mAbs. Post-acquisition, the cells were size-gated to differentiate them from debris. The percentage of dually positive PMNs was determined using a CD45-versus-Ly6G dot plot (upper-right quadrant). The data are summarized in a bar graph representative of duplicate experiments. *p<0.05 (student t-test)
Following euthanasia, the retinas were isolated from the eyes as described by Skeie et al. (2011. J. Vis. Exp. 50:2795) and were digested in Accumax (Millipore, Billerica, Mass.) for 10 min at 37° C. Retinas from two eyes were pooled together to obtain a sufficient number of cells. Following digestion, the retinal tissue was passed through a 23-gauge needle & syringe and filtered through a 40 μm cell strainer (BD Falcon, San Jose, Calif.). […] After subsequent washing steps, the cells were acquired on an Accuri C6 flow cytometer (Accuri, Ann Arbor, Mich.), and the data were analyzed using Accuri C6 software (Accuri, Ann Arbor, Mich.).

B1: Ply187AN-KSH3b: staphylococcal peptidoglycan hydrolase fusion protein: endopeptidase domain of prophage endolysin Ply187 plus SH3b cell wall-binding domain of phage K endolysin LysK (SEQ ID NO:1) (protein)
chain: MALPKTGKPTAKQVVDWAINLIGSGVDVDGYYGRQCWDLPNYIFNRYWNFKTPGNARDMAWYRYPEGFKVFRNTSDFVPKPGDIAVWTGGNYNWNTWGHTGIVVGPSTKSYFYSVDQNWNNSNSYVGSPAAKIKHSYFGVTHFVRPAYKAEPKPTPPLESTPATRPVTGSWKKNQYGTWYKPENATFVNGNQPIVTRIGSPFLNAPVGGNLPAGATIVYDEVCIQAGHIWIGYNAYNGNRVYCPVRTCQGVPPNQIPGVAWGVFKVEHHHHHH
modifications: Chemically Synthesized Fusion Protein
With B1, in the experiment with S. aureus, the “killing activity in presence of vitreous humor (viable count)” value was “does not adversely affect the killing activity”. The “histological analysis (H&E) of retina” value in experiment [1] (1 μg/eye intravitreal) is listed as “preserved the integrity of the retina”. For the same molecule, the “TUNEL+ cells (retinal cell death), average” value in experiment [1] (retinal sections) is 17.66 TUNEL^+ cells/eye. For the same molecule, the “reduction in neutrophil (PMN) infiltration” value in experiment [2] is 40-50% and ~50%.
